{"source": "patent US6573364", "about": "(CURAGEN, dated 2003)", "binders": {"B1": {"name": "14-3-3 protein eta isoform, prey insert starting at nucleotide 764 of GenBank X80536, fused to the Gal4 DNA binding domain (other, yeast)", "chain": "MKLLSSIEQACDICRLKKLKCSKEKPKCAKCLKNNWECRYSPKTKRSPLTRAHLTEVESRLERLEQLFLLIFPREDLDMILKMDSLQDIKALLTGLFVQDNVNKDAVTDRLASVETDMPLTLRQHRISATSSSEESSNKGQRQLTVSQACLLAKQAFDDAIAELDTLNEDSYKDSTLIMQLLRDNLTLWTSDQQDEEAGEGN", "notes": "Prey from a human fetal brain cDNA library, reverse screens; Residue limits derived from the printed nucleotide start; also called 14-3-3 eta"}, "B2": {"name": "HPIP1 (prey sequence of 619 nucleotides, interaction starting at nucleotide 1) fused to the Gal4 activator domain (other, not shown: large carriers)", "chain": "GTRLSINPNNHSWLIIQADIYFATNQYSAALHYYLQAGAVCSDFFNKAVPPDVYTDQVIKRMIKCCSLLNCHTQVAILCQFLREIDYKTAFKSLQEQNSHDAMDSYYDYIWDVTILEYLTYLHHKRGETDKRQIAIKAIGQTELNASNPEEVLQLAAQRRKKKFLQAMAKLYF", "notes": "Prey of the forward screen, 3 identical clones from a human fetal brain cDNA library; also called cg49368.b1; cg49367.h11"}, "B3": {"name": "BMK1 alpha kinase, prey insert starting at nucleotide 2431 of GenBank U29725, fused to the Gal4 DNA binding domain (other, yeast)", "chain": "MKLLSSIEQACDICRLKKLKCSKEKPKCAKCLKNNWECRYSPKTKRSPLTRAHLTEVESRLERLEQLFLLIFPREDLDMILKMDSLQDIKALLTGLFVQDNVNKDAVTDRLASVETDMPLTLRQHRISATSSSEESSNKGQRQLTVSGAGYGVGFDLEEFLNQSFDMGVADGPQDGQADSASLSASLLADWLEGHGMNPADIESLQREIQMDSPMLLADLPDLQDP", "notes": "Prey of the reverse screen, 2 isolates; Residue limits derived from the printed nucleotide start"}, "B4": {"name": "HPS protein fragment 1272-2357 fused to the Gal4 activator domain (reverse screen) (other)", "chain": "NVKESYCPLVPHTMYCLPLWQGINLVLLTRSPSAPLALVLSQLMDGFSMLEKKLKEGPEPGASLRSQPLVGDLRQRMDKFVKNRGAQEIQSTWLEFKAKAFSKSEPGSSWELLQACGKLKRQLCAIYRLNFLTTAPSRGGPHLPQHLQDQVQRLMREKLTDWKDFLLVKSRRNITMVSYLEDFPGLVHFIYVDRTTGQMVAPSLNCSQKTSSELGKGPLAAFVKTKVWSLIQLARRYLQKGYTTLLFREGDFYCSYFLWFENDMGYKLQMIEVPVLSDDSVPIGMLGGDYYRKLLRYYSKNRPTEAVRCYELLALHLSVIPTDLLVQQAGQLARRLWEASRIPLL", "notes": "Codes for the same HPS residues as the 1272-2306 construct but is a separate construct; also called HPS protein domain 1272-2357; HPS U65676 1272-2357; not shown: order of the two pie"}, "B5": {"name": "HPS protein fragment 210-1292 fused to the Gal4 activator domain (reverse screen) (other)", "chain": "KCVLVATEGAEVLFYWTDQEFEESLRLKFGQSENEEEELPALEDQLSTLLAPVIISSMTMLEKLSDTYTCFSTENGNFLYVLHLFGECLFIAINGDHTESEGDLRRKLYVLKYLFEVHFGLVTVDGHLIRKELRPPDLAQRVQLWEHFQSLLWTYSRLREQEQCFAVEALERLIHPQLCELCIEALERHVIQAVNTSPERGGEEALHAFLLVHSKLLAFYSSHSASSLRPADLLALILLVQDLYPSESTAEDDIQPSPRRARSSQNIPVQQAWSPHSTGPTGGSSAETETDSFSLPEEYFTPAPSPGDQSSGSTIWLEGGTPPMDALQIAEDTLQTLVPHCPVPSGPRRIFLDANVKESYC", "notes": "Residue limits are derived from the printed nucleotide limits; also called HPS protein domain 210-1292; HPS U65676 210-1292; not shown: order of the two pie"}}, "key": {"[1]": {"target": "T1, HPS protein fragment 1272-2306 fused to the Gal4 activator domain (reverse screen) (yeast; human, UniProt Q92902 356-700)", "T1 construct": "Residue limits are derived from the printed nucleotide limits; also called HPS protein domain comprised of nucleotides 1272-2306; HPS U65676 1272-2306; not shown: order of the two pie", "T1 sequence": "B4 chain", "assay": "yeast two-hybrid, reverse screen; listed in Table I as an interaction with HPS 1272-2306, 1 isolate", "description": "(§1) The two mating strains ([…]) were then diluted in YAPD media (see Id.) filtered onto nitrocellulose membranes and incubated at 30° C. for 6–8 hours. […] The mating products were plated on synthetic complete (SC) media (see Kaiser, Michaelis & Mitchell, Eds., 1994. *Methods in Yeast Genetics*, 1994 *Ed.* (Cold Spring Harbor Laboratory Press, New York, N.Y.) lacking adenine and lysine (to select for successful mating), leucine and tryptophan (to select for expression of genes encoded by both the bait and prey plasmids), and uracil and histidine (to select for protein interactions). This medium is hereinafter referred to as SCS medium, for SC Selective medium.\n(§2) Selected clones were subsequently examined for expression of β-galactosidase to confirm the formation of an HPS protein•HPS protein-IP interaction. […]\n(§3) The cells contained within colonies which were \"positive\" for protein interaction contained a mixture of DNA-binding and activation-domain plasmids. […] Approximately 10 μl of each selected isolate was lysed, the inserts within the pAD-GAL4 or pGAD-GH for the activation domain plasmids and pBD-GAL4 or pGBT9BS plasmids were PCR amplified using primers specific for the flanking sequences of each vector and approximately 300 nucleotides (of what would be the protein's amino-terminus following translation) was determined using an ABI 377 sequenator. […]"}, "[2]": {"target": "B4", "assay": "yeast two-hybrid, reverse screen; listed in Table I as an interaction with HPS 1272-2357, 1 isolate", "description": "as §1, §2, §3"}, "[3]": {"target": "T2, HPS protein bait fragment 210-1292 fused to the Gal4 DNA binding domain (forward screen) (yeast; human, UniProt P04386 1-147)", "T2 construct": "Residue limits are derived from the printed nucleotide limits; also called Hermansky-Pudlak Syndrome protein; HPS U65676 210-1292", "assay": "yeast two-hybrid, forward screen; listed in Table I as an interaction with HPS 210-1292, 3 isolates", "description": "as §1, §2, §3"}, "[4]": {"target": "B5", "assay": "yeast two-hybrid, reverse screen; listed in Table I as an interaction with HPS 210-1292, 2 isolates", "description": "as §1, §2, §3"}, "[5]": {"target": "T3, CDK2, prey insert starting at nucleotide 4 of GenBank X61622, fused to the Gal4 DNA binding domain (yeast; human, UniProt P04386 1-147)", "T3 construct": "Prey of the reverse screen; Residue limits derived from the printed nucleotide start; also called CDK2 X61622 4-*", "assay": "yeast two-hybrid, reverse screen; listed in Table I as an interaction with HPS 1272-2357, 1 isolate", "description": "as §1, §2, §3"}, "[6]": {"target": "T4, Atrophin-1, prey insert starting at nucleotide 2649 of GenBank U23851, fused to the Gal4 DNA binding domain (yeast; human, UniProt P04386 1-147)", "T4 construct": "Prey of the reverse screen; Residue limits derived from the printed nucleotide start; also called Atrophin I; atrophin-I", "assay": "yeast two-hybrid, reverse screen; listed in Table I as an interaction with HPS 210-1292, 1 isolate", "description": "as §1, §2, §3"}}, "data": [{"binder": "B1", "values": [{"measurement": "binding result", "setting": "[1]", "value": "binds"}, {"measurement": "binding result", "setting": "[2]", "value": "binds"}]}, {"binder": "B2", "values": [{"measurement": "binding result", "setting": "[3]", "value": "binds"}]}, {"binder": "B3", "values": [{"measurement": "binding result", "setting": "[4]", "value": "binds"}]}, {"binder": "B4", "values": [{"measurement": "binding result", "setting": "[5]", "value": "binds"}]}, {"binder": "B5", "values": [{"measurement": "binding result", "setting": "[6]", "value": "binds"}]}]}
